In US20260234247A1 (published 2026):

B1: LK-RB1-11 (antibody, human IgG4 S228P, kappa, V domains shown)
VH: QVTLKESGPGILQPSQTLSLTCSFSGFSLKTSGMSVGWIRQPSGKGLEWLAHIWWNDDKYYNPVLKGRLTISKDTSNNLVFLKIASVVSTDTATYYCVRYGNSHGYWYFDVWGTGTTVTVSS
VL: NIVLTQSPASLAVSLGQRATISCRASESVDSYGNNFIHWYQQKPGQPPKVLIYYASNLEAGVPARFSGSGSRTDFTLTIDPVEAEDAATYYCQQNNEDPYTFGGGTKLEIER
notes: Anti-LILRB1 antibody
B2: LK-RB1-51 (antibody, human IgG4 S228P, kappa, V domains shown)
VH: QVQIQQSGAELVKPGASVKLSCKASGYTFTEFPIHWIKQRSGQGLEWIGWFYPGSDNMNYNEKFKDKATLTADKSSSTVYMELSRLTSEDSAVYFCARHENAYFYAMDYWGQGTSVTVSS
VL: ENVLTQSPAIMSASLGEKVTMSCRASSSVNYMYWYQQKSDASPKIWIYYTSNLAPGVPARFSGSGSGNSYSLTISSMEGEDAATYYCQQFTSSPFTFGTGTKLEIKR
notes: Anti-LILRB1 antibody
B3: LK-RB1-50 (antibody, human IgG4 S228P, kappa, V domains shown)
VH: QVQLKQSGPGLVQPSQSLSITCTVSGFSLTSYGVHWVRQSPGKGLEWLGVIWRGGNTDYNAPFVSRLSITKDNSQSQVFFKMNSLEADDTAIYYCAKNSLDVYSSWYFDVWGTGTTVTVSS
VL: QIVLSQSPAILSAFPGEKVTMTCRASSSVSFMHWYQQKPGSSPKPWIYATSNLASGVPARFSGSGSGTSYSLTISRVEAEDAATYYCQQWSSNPLTFGAGTKLELKR
notes: Anti-LILRB1 antibody
B4: LK-RBi-10 (bispecific antibody, human IgG4 S228P, kappa)
heavy: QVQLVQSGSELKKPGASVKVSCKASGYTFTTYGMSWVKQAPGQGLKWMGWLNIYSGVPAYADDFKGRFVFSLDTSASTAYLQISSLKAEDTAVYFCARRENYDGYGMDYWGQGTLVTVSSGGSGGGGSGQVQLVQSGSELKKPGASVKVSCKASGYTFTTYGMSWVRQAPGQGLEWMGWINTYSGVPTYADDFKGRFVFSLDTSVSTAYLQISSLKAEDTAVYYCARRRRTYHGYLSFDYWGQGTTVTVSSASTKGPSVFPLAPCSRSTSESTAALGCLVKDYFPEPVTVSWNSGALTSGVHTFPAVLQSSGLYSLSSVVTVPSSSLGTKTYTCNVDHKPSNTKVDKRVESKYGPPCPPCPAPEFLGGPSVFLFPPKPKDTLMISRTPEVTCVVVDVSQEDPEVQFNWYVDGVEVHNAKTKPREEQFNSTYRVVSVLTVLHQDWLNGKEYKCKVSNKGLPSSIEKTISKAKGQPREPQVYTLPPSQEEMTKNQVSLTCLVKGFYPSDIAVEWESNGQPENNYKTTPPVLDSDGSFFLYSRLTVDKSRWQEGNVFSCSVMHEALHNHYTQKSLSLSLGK
light: EIVLTQSPATLSLSPGERATLSCRASQSISDYLHWYQQKPGQAPRLLIKYASQSISGIPSRFSGSGSGTDFTLTISSLEPEDVAVYYCQNGHSFPYTFGGGTKLEIKGGSGGGGSGDIQMTQSPSSLSASVGDRVTITCETSENIYGALNWYQQKPGKAPKLLIYGATNLAEGVPSRFSGSGSGTDFTFTISSLQPEDIATYYCQNVLNTPWTFGGGTKLEIKRTVAAPSVFIFPPSDEQLKSGTASVVCLLNNFYPREAKVQWKVDNALQSGNSQESVTEQDSKDSTYSLSSTLTLSKADYEKHKVYACEVTHQGLSSPVTKSFNRGEC
B5: LK-RBi-09 (bispecific antibody, human IgG4 S228P, kappa)
heavy: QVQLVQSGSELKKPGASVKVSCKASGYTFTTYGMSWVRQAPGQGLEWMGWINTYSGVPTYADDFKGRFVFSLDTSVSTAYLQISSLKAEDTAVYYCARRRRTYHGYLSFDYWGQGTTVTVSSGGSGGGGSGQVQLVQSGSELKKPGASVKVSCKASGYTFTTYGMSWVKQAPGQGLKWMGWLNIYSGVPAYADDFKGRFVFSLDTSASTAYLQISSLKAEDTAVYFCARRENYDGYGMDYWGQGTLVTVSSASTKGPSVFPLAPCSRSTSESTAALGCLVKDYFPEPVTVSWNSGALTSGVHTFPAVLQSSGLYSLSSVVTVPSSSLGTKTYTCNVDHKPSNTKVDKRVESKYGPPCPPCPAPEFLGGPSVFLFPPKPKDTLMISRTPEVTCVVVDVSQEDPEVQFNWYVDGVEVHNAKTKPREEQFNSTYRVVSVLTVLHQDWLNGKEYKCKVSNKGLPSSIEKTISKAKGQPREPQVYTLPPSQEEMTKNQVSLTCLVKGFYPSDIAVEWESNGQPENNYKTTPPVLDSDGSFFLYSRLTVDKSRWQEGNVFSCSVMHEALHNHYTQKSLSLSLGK
light: DIQMTQSPSSLSASVGDRVTITCETSENIYGALNWYQQKPGKAPKLLIYGATNLAEGVPSRFSGSGSGTDFTFTISSLQPEDIATYYCQNVLNTPWTFGGGTKLEIKGGSGGGGSGEIVLTQSPATLSLSPGERATLSCRASQSISDYLHWYQQKPGQAPRLLIKYASQSISGIPSRFSGSGSGTDFTLTISSLEPEDVAVYYCQNGHSFPYTFGGGTKLEIKRTVAAPSVFIFPPSDEQLKSGTASVVCLLNNFYPREAKVQWKVDNALQSGNSQESVTEQDSKDSTYSLSSTLTLSKADYEKHKVYACEVTHQGLSSPVTKSFNRGEC
B6: LK-RBi-11 (bispecific antibody, human IgG4 S228P, kappa)
heavy: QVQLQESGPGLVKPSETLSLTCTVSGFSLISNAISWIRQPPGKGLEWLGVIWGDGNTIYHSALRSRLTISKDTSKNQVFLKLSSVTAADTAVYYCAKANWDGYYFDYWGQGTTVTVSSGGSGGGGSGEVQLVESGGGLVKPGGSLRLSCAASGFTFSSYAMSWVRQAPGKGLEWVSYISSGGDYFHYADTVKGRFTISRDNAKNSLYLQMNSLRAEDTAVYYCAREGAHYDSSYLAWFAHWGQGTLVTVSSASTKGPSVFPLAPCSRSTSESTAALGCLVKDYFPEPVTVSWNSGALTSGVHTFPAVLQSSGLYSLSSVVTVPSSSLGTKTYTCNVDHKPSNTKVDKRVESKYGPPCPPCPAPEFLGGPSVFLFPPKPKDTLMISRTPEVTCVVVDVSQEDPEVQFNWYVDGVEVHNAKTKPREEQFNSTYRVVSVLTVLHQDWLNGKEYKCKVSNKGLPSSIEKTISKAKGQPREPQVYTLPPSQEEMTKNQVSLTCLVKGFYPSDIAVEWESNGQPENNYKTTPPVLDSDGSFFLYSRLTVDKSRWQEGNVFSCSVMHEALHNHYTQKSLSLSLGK
light: DIQMTQSPSTLSASVGDRVTITCHASQSVDFWLNWYQQKPGKAPKLLISKASNLHTGVPSRFSGSGSGTEFTLTISSLQPDDFATYYCQQGQSYPLTFGQGTKLEIKGGSGGGGSGDIQMTQSPSSVSASVGDRVTITCRASENIYSNLAWYQQKPGKAPKLLIYAATNLAEGVPSRFSGSGSGTDYTLTISSLQPEDFATYYCQQFWDNPLTFGQGTKLEIKRTVAAPSVFIFPPSDEQLKSGTASVVCLLNNFYPREAKVQWKVDNALQSGNSQESVTEQDSKDSTYSLSSTLTLSKADYEKHKVYACEVTHQGLSSPVTKSFNRGEC
B7: hz73D1.v1 (antibody, human IgG4 S228P, kappa, V domains shown)
VH: QVQLVQSGAEVKKPGASVKVSCKASGYTFTDYYINWVRQAPGQGLEWMGNVNPNDGGTTYNQKFKGRVTMTTDTSTSTAYMELRSLRSDDTAVYYCARREIYFYGTIYYYAMDYWGQGTLVTVSS
VL: DIQLTQSPSFLSASVGDRVTITCRASESVDYYGNSFMYWYQQKPGKAPKLLIYFASNLESGVPSRFSGSGSGTEFTLTISSLQPEDFATYYCQQNNEDPWTFGGGTKVEIKR

What follows are binders tested against T1, Rhesus LILRB1 (F7H3G7) on CHOK1 cells (rhesus macaque) (assay: flow cytometry on CHOK1-rhesus LILRB1 (F7H3G7) cells).
T1 construct: whole, on cells; also called CHOK1-Rhesus LILRB1 (F7H3G7)

| EC50 | Binder |
| --- | --- |
| 0.00078 µM | B1 |
| 26.6 µM | B2 |
| 19.9 µM | B3 |

What follows are binders tested against T2, human LILRB1 expressed on CHOK1 cells (human, UniProt Q8NHL6 24-650) (assay: flow cytometry (FACS) binding to CHOK1-hLILRB1 cells).
T2 construct: whole, on cells; also called CHOK1-hLILRB1; CHOK1-LILRB1
T2 sequence (Q8NHL6 24-650): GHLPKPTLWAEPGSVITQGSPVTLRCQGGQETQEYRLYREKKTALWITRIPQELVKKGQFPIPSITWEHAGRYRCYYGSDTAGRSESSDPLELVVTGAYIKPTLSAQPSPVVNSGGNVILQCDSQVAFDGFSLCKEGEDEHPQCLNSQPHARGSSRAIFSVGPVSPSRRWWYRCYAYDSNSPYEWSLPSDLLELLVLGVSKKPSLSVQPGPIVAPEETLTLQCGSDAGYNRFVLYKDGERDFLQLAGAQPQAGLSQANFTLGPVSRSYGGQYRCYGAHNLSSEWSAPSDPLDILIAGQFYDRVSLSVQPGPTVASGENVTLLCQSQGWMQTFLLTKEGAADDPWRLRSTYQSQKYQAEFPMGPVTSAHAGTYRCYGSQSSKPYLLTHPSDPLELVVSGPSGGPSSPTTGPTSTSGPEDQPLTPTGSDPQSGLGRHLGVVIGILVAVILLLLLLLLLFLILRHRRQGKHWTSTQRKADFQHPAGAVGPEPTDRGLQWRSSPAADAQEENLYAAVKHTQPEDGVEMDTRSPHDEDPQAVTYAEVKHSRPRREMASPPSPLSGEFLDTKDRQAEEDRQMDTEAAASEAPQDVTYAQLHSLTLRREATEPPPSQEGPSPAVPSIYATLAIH

| EC50 | Binder |
| --- | --- |
| 2.21 nM | B4 |
| 1.17 nM | B5 |
| 2.31 nM | B6 |
| 5.37 nM | B7 |

These binders were tested against T3, human LILRB2 expressed on CHOK1 cells (human, UniProt Q8N423 22-597) (assay: flow cytometry (FACS) binding to CHOK1-hLILRB2 cells).
T3 construct: whole, on cells; also called CHOK1-hLILRB2; CHOK1-LILRB2
T3 sequence (Q8N423 22-597): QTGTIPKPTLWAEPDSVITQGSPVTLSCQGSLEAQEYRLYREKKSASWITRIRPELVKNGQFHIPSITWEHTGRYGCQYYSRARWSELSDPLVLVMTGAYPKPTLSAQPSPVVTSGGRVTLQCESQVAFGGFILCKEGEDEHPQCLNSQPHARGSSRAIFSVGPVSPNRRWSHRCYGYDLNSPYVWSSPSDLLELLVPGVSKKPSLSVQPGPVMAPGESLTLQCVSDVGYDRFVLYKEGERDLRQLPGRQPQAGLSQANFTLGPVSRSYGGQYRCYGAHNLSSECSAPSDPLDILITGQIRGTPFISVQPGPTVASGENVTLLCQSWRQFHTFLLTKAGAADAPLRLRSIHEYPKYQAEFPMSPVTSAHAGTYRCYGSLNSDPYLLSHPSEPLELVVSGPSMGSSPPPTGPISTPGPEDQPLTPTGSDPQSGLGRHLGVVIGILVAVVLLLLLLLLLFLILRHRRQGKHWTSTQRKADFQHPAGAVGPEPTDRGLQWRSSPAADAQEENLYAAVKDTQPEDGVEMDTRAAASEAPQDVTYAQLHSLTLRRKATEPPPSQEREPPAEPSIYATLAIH

| EC50 | Binder |
| --- | --- |
| 1.06 nM | B4 |
| 1.29 nM | B5 |
| 2.22 nM | B6 |
| 1.4 nM | B7 |

The binders below were run against T2, human LILRB1 expressed on CHOK1 cells (assay: cell based RBA on CHOK1-hLILRB1 cells, flow cytometry; competitor HLA-G).

| EC50 | Binder |
| --- | --- |
| 0.91 µg/mL | B4 |
| 1.03 µg/mL | B5 |
| 4.37 µg/mL | B6 |
| 7.26 µg/mL | B7 |

Each binder was assayed against T3, human LILRB2 expressed on CHOK1 cells (assay: cell based RBA on CHOK1-hLILRB2 cells, flow cytometry; competitor HLA-G).

| EC50 | Binder |
| --- | --- |
| 0.5 µg/mL | B4 |
| 0.43 µg/mL | B5 |
| 2.49 µg/mL | B6 |
| 1.46 µg/mL | B7 |
